Results reported in US20240132589A1 (ONCORESPONSE, published 2024).

Assays:
[1] = molecular target: T1, Human LILRB4 on transiently transfected HEK293-6E cells (human, UniProt Q8NHJ6 22-448); experiment: flow cytometry, transiently transfected HEK293-6E cells
T1 construct: whole, on cells; also called hLILRB4
Method: (§1) To determine that the anti-LILRB2 antibodies specifically bind to LILRB2 and not other LILRB and LILRA family members, a cross-reactivity assay was performed. Cross-reactivity of the LILRB2 antibodies to other LILRB proteins was assessed by antibody binding to transiently transfected HEK293-6E cells, measured by flow cytometry. Binding was evaluated to HEK293-6E cells transiently transfected with human LILRB-1, -2, -3, -4, and 5 plasmids (Origene, Nos. RC219949, RC217935, RC211228, RC220932, RC206516) or to cells transiently transfected with human LILRA-1, -2, -4, -5, and -6 plasmids (Origene, Nos. RC210808, RC205626, RC220452, RC212310 RC212965). […] Murine primary antibodies to LILRA and LILRB targets and corresponding isotype controls were used to confirm specific binding of all targets tested (R&D Systems) while an AF647 F(ab′)₂ fragment goat anti-mouse antibody (Jackson ImmunoResearch, No. 115-606-062) was used for the detection of bound positive control antibodies. No binding of B2A-IgG4 or B2A-IgG1 to LILRB-1, -3, -4, or -5 was observed, and no binding of either antibody to LILRA-1, -2, -4, -5, or -6 was observed, confirming specificity of these antibodies.
(§2) Select humanized variant antibodies were tested for their ability to bind other LILRB or LILRA family members, using the method and commercially available positive control antibodies of Example 5.

[2] = molecular target: T2, Human LILRA2 on transiently transfected HEK293-6E cells (human, UniProt Q8N149 24-483); experiment: as above
T2 construct: whole, on cells; also called hLILRA2
Method: as §1, §2

[3] = molecular target: T3, Human LILRA4 on transiently transfected HEK293-6E cells (human, UniProt P59901 24-499); experiment: as above
T3 construct: whole, on cells; also called hLILRA4
Method: as §1, §2

[4] = molecular target: T4, Human LILRB3 on transiently transfected HEK293-6E cells (human, UniProt O75022 24-631); experiment: as above
T4 construct: whole, on cells; also called hLILRB3
Method: as §1, §2

[5] = molecular target: T5, Human LILRB5 on transiently transfected HEK293-6E cells (human, UniProt O75023 24-590); experiment: as above
T5 construct: whole, on cells; also called hLILRB5
Method: as §1, §2

[6] = molecular target: T6, Human LILRA6 on transiently transfected HEK293-6E cells (human, UniProt Q6PI73 24-481); experiment: as above
T6 construct: whole, on cells; also called hLILRA6
Method: as §1, §2

[7] = molecular target: T7, Human LILRB2 on transiently transfected HEK293-6E cells (human, UniProt Q8N423 22-597); experiment: as above
T7 construct: whole, on cells; also called hLILRB2
Method: as §1, §2

[8] = molecular target: T8, Human LILRA1 on transiently transfected HEK293-6E cells (human, UniProt O75019 17-489); experiment: as above
T8 construct: whole, on cells; also called hLILRA1
Method: as §1, §2

[9] = molecular target: T9, Human LILRB1 on transiently transfected HEK293-6E cells (human, UniProt Q8NHL6 24-650); experiment: as above
T9 construct: whole, on cells; also called hLILRB1
Method: as §1, §2

[10] = molecular target: T10, Human LILRA5 on transiently transfected HEK293-6E cells (human, UniProt A6NI73 42-299); experiment: as above
T10 construct: whole, on cells; also called hLILRA5
Method: as §1, §2

[11] = molecular target: T1, Human LILRB4 on transiently transfected …; experiment: as above; remark: listed apart in the source
[12] = molecular target: T2, Human LILRA2 on transiently transfected …; experiment: as above; remark: listed apart in the source
[13] = molecular target: T3, Human LILRA4 on transiently transfected …; experiment: as above; remark: listed apart in the source
[14] = molecular target: T4, Human LILRB3 on transiently transfected …; experiment: as above; remark: listed apart in the source
[15] = molecular target: T5, Human LILRB5 on transiently transfected …; experiment: as above; remark: listed apart in the source
[16] = molecular target: T6, Human LILRA6 on transiently transfected …; experiment: as above; remark: listed apart in the source
[17] = molecular target: T8, Human LILRA1 on transiently transfected …; experiment: as above; remark: listed apart in the source
[18] = molecular target: T9, Human LILRB1 on transiently transfected …; experiment: as above; remark: listed apart in the source
[19] = molecular target: T10, Human LILRA5 on transiently transfected …; experiment: as above; remark: listed apart in the source
[20] = molecular target: T11, Human LILRB2 on stably transduced HEK293T cells (human, UniProt Q8N423 22-597); experiment: flow cytometry, HEK293T cells stably expressing human LILRB2
T11 construct: Lentiviral transduction (G&P Biosciences LTV2992); also called HEK293T-LILRB2; LILRB2-expressing HEK293T cells
Method: To confirm binding of LILRB2 antibodies, flow cytometry binding assays were performed using HEK293T cells stably expressing human LILRB2 (Example 3). […] The B2A-IgG1 and B2A-IgG4 chimeras bound the LILRB2-expressing HEK293T cells, with equivalent EC₅₀ values of 0.21 nM and 0.30 nM respectively.

T9 sequence (Q8NHL6 24-650): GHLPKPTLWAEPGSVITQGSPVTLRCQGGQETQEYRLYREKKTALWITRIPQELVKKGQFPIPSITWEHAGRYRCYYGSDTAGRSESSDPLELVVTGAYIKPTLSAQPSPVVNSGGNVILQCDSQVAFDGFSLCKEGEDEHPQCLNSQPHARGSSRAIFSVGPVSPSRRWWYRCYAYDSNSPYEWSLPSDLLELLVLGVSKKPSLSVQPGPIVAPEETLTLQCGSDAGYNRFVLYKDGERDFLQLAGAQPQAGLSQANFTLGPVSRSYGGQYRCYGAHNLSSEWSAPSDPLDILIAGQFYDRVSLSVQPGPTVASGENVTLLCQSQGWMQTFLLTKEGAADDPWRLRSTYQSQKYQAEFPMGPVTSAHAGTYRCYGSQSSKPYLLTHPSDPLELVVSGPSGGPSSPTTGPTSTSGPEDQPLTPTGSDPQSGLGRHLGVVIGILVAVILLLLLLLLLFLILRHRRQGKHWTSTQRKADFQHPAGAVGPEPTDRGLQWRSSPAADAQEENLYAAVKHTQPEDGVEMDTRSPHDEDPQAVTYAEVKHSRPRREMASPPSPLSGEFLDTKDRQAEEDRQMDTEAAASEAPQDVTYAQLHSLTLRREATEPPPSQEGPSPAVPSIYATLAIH
T10 sequence (A6NI73 42-299): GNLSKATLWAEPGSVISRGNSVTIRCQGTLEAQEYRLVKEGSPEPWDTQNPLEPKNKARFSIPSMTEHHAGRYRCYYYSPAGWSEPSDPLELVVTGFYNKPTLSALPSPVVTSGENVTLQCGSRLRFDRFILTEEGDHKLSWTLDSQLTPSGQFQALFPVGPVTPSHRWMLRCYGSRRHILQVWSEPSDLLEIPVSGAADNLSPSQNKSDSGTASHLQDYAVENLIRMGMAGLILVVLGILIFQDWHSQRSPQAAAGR
T8 sequence (O75019 17-489): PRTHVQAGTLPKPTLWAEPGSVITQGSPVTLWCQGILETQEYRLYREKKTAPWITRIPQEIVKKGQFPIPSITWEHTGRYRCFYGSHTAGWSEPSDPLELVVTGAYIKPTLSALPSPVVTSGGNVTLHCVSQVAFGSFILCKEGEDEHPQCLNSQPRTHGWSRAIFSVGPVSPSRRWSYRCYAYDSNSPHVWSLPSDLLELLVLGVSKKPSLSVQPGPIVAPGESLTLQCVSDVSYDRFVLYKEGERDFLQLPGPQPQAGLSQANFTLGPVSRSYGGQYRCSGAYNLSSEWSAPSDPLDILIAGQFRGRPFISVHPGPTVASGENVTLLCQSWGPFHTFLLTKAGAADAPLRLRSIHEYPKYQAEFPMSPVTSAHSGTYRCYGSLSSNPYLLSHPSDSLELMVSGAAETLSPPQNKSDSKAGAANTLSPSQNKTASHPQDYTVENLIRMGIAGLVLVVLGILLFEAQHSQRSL
T3 sequence (P59901 24-499): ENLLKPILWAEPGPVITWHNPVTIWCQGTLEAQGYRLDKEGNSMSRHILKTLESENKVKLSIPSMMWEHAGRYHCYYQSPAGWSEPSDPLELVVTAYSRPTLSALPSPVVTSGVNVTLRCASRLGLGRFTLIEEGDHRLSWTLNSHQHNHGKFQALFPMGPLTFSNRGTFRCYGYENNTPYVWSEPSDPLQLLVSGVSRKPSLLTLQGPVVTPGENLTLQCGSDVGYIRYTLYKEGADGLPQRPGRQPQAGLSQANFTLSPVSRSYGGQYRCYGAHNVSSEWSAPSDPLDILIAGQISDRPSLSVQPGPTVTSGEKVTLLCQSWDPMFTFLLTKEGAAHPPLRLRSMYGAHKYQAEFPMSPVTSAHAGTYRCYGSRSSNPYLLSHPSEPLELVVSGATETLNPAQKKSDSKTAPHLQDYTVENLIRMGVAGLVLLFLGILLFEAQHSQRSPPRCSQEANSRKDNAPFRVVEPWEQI
T5 sequence (O75023 24-590): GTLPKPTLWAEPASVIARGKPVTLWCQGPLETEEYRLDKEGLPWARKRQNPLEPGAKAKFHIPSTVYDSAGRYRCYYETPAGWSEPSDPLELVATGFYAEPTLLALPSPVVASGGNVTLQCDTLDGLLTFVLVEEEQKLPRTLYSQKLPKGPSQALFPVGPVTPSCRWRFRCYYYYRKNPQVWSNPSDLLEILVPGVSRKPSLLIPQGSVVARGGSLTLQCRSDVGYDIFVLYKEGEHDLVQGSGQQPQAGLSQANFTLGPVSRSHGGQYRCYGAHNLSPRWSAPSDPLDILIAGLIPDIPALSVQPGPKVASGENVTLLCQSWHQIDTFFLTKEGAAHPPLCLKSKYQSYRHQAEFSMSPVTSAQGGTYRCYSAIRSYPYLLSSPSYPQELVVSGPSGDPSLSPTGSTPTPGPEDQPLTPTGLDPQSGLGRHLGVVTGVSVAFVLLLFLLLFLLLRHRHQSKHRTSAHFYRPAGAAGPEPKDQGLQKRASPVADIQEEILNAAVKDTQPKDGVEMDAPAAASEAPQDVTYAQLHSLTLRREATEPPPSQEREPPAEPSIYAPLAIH
T6 sequence (Q6PI73 24-481): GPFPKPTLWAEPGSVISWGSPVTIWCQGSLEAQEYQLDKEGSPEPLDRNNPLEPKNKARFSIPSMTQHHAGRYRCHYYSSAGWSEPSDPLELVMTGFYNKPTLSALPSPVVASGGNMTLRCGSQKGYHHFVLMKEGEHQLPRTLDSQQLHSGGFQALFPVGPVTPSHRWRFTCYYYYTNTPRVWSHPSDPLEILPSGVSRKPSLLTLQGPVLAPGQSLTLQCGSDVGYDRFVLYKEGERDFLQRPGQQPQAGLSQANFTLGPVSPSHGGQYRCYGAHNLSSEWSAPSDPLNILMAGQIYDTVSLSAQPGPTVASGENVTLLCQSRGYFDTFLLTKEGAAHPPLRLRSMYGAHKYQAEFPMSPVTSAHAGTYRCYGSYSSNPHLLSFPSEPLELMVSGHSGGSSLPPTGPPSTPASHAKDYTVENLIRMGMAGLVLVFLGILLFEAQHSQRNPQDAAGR
T2 sequence (Q8N149 24-483): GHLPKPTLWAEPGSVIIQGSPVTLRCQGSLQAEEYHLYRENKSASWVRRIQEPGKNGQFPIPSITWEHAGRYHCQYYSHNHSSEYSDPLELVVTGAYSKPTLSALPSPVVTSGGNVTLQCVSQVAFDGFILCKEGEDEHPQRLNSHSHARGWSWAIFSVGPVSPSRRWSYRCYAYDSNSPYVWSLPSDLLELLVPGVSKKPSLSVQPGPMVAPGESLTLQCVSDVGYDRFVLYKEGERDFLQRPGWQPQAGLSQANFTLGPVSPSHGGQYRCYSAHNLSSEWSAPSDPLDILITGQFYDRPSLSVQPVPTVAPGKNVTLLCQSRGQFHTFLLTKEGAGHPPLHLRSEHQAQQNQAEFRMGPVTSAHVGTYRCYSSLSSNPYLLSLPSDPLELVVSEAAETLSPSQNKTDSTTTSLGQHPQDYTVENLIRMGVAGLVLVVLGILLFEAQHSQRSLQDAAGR
T7 sequence (Q8N423 22-597): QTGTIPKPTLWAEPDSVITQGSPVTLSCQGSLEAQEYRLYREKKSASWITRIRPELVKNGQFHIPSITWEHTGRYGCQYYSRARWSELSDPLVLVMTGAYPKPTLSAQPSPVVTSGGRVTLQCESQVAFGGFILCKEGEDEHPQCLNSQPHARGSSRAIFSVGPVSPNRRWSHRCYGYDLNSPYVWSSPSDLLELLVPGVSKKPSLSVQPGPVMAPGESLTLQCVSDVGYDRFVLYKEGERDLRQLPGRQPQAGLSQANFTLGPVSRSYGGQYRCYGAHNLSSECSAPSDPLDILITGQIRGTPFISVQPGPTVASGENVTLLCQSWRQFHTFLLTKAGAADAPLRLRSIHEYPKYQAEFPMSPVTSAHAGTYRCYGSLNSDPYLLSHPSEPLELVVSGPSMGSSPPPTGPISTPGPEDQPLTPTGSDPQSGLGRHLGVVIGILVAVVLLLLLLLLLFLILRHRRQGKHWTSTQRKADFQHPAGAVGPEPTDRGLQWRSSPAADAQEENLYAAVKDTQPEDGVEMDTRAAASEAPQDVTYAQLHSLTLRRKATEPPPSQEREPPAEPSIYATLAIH
T11 sequence (Q8N423 other isoform, or with tags, fused parts or gaps limits assumed): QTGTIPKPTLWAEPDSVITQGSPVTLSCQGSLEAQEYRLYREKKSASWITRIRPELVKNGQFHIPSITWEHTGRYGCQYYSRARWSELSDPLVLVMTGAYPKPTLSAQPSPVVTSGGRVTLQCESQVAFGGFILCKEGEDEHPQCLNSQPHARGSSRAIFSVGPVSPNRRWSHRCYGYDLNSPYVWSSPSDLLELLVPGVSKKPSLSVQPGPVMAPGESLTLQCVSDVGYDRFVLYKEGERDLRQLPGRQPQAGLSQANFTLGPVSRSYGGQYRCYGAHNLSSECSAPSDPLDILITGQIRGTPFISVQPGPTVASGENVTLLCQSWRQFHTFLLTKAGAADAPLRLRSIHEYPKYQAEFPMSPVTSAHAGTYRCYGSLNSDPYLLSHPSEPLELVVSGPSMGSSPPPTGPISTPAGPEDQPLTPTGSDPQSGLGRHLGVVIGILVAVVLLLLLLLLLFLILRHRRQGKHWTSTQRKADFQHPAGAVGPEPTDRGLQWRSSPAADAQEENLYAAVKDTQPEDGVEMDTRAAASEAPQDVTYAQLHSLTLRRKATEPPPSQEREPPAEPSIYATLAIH

Row | Binder | Bmax (MFI) [1] [MFI] | Bmax (MFI) [2] [MFI] | BMAX [gMFI] [3] [gMFI] | Bmax (MFI) [4] [MFI] | Bmax (MFI) [5] [MFI] | Bmax (MFI) [6] [MFI] | Bmax (MFI) [7] [MFI] | Bmax (MFI) [8] [MFI] | Bmax (MFI) [9] [MFI] | Bmax (MFI) [10] [MFI] | binding result [11] | binding result [12] | binding result [13] | binding result [14] | binding result [15] | binding result [16] | binding result [17] | binding result [18] | binding result [19] | EC50 [20] [nM]
1 | B2A-IgG1 (antibody, Rabbit variable regions on human IgG1 / kappa constant regions; AF647-conjugated in some flow assays; also called B2A-IgG1 chimera; anti-LILRB2 B2A-IgG1) heavy: not shown light: DVVMTQTPSSVSAALGGTVTIKCQASQSIGSNLAWYQLKPGQRPKLLIYAAATLASGGSSRFKGSGSGTDFTLTISDLECADAATYYCQSYVSGSSDVAFGGGTEVVVKRTVAAPSVFIFPPSDEQLKSGTASVVCLLNNFYPREAKVQWKVDNALQSGNSQESVTEQDSKDSTYSLSSTLTLSKADYEKHKVYACEVTHQGLSSPVTKSFNRGEC | 41.4 | 40.4 | 104 | 163 | 147 | 211 | 11300 | 837 | 41.9 | 124 | no binding | no binding | no binding | no binding | no binding | no binding | no binding | no binding | no binding | 0.21
2 | B2A-IgG4 (antibody, Rabbit variable regions on human IgG4 / kappa constant regions; also called B2A-IgG4 chimera; Parent B2A-IgG4) heavy: not shown light: DVVMTQTPSSVSAALGGTVTIKCQASQSIGSNLAWYQLKPGQRPKLLIYAAATLASGGSSRFKGSGSGTDFTLTISDLECADAATYYCQSYVSGSSDVAFGGGTEVVVKRTVAAPSVFIFPPSDEQLKSGTASVVCLLNNFYPREAKVQWKVDNALQSGNSQESVTEQDSKDSTYSLSSTLTLSKADYEKHKVYACEVTHQGLSSPVTKSFNRGEC |  |  |  |  |  |  |  |  |  |  | no binding | no binding | no binding | no binding | no binding | no binding | no binding | no binding | no binding | 0.3
3 | B2H1-55 (antibody, V domains shown, Humanized variant, human IgG1 / kappa; also called humanized variant B2H1-55; humanized LILRB2 antibody B2H1-55) VH: EVQLLESGGGLVQPGTSLTLSCAASGFSLSTYAMSWVRQAPGKGLEWIGWIYNDGSTYYAAWAKGRFTISKDTSKTTLYLQITSLRAEDTATYFCAREGDYIGYFNIWGQGTLVTVSS VL: DVVMTQTPSSVSAALGGTVTIKCQASQSIGSNLAWYQLKPGQRPKLLIYAAATLASGGSSRFKGSGSGTDFTLTISSLEPADAATYYCQSYVSGSSDVAFGGGTEVVVK | 40.3 | 37.7 | 112 | 154 | 138 | 214 | 11000 | 783 | 41.4 | 129 | no binding | no binding | no binding | no binding | no binding | no binding | no binding | no binding | no binding | 
